Reference: patent US20060241048A1
One block for each molecule: values may come before it.

What was measured:
[1] = biological target: bovine serum albumin (BSA) (bovine) (UniProt P02769); assay: cell-based or functional assay
[2] = biological target: C5b-8 and C5b-9 complexes (human); assay: cell-based or functional assay

UniProt P02769, sequence (P02769 25-607 limits assumed): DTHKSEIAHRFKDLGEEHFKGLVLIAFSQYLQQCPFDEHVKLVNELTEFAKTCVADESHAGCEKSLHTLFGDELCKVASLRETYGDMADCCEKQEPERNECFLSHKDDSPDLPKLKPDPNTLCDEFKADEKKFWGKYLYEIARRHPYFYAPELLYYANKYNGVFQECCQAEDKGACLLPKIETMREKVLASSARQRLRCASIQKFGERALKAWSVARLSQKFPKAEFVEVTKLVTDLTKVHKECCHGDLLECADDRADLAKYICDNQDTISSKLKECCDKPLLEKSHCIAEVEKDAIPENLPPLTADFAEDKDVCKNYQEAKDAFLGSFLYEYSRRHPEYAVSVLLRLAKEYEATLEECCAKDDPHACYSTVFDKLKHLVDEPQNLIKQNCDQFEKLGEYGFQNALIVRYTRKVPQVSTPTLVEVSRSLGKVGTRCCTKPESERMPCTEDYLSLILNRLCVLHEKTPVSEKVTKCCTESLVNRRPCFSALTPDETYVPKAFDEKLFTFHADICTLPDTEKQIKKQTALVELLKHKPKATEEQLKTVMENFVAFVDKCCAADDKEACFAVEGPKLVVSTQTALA

IH50 (nM), reactive lysis of guinea pig erythrocytes, Absence of HSA [2]: 600 nM
IH50 (nM), reactive lysis of guinea pig erythrocytes, Presence of HSA (2.7 mg/ml) [2]: 400 nM
B1: Recombinant human CD59 (lacking the GPI anchor), with an amino-terminal methionine and a carboxy-terminal cysteine (APT2439) (protein)
chain: MLQCYNCPNPTADCKTAVNCSSDFDACLITKAGLQVYNKCWKFEHCNFNDVTTRLRENELTYYCCKKDLCNFNEQLENC

IH50 (nM), reactive lysis of guinea pig erythrocytes, Absence of HSA [2]: 0.1 nM
IH50 (nM), reactive lysis of guinea pig erythrocytes, Presence of HSA (2.7 mg/ml) [2]: 0.08 nM
B2: APT3280, conjugate of APT2439 and APT3146 via a disulphide (protein, human)
chain: B1 chain
peptide: KSSKSPSKKDDKKPGDC
modifications: bisMyr at the N-terminal Lys; Cys (thiopyridylated before conjugation) disulphide-linked to CD59; carboxy-terminal Cys disulphide-linked to APT3146

Continued, molecule first:

Molecule: APT070, [SCR1-3]-Cys-S-S-[MSWP-1] (from UniProt P17927 42-237) (other; unit assumed)
IH50 of inhibition of haemolysis, 4 mg/ml BSA [No BSA: 0.26 at the 13th table, row 8, column 3] [1]: 1.3 nM
IH50 of inhibition of haemolysis, 40 mg/ml BSA [No BSA: 0.26 at the 13th table, row 8, column 3] [1]: 10 nM

Molecule: APT070, [SCR1-3]-Cys-S-S-[MSWP-1] (from UniProt P17927 42-237)
IH50 (nM) of inhibition of haemolysis, Presence of Albumin (40 mg/ml) [absence of albumin: 0.26 at the 11th table, row 9, column 3] [1]: 10 nM

B3: APT3073, conjugate of APT2439 and APT2258 via a disulphide (protein, human)
chain: B1 chain
peptide: GSSKSPSKKDDKKPGDC
modifications: N-terminal myristoyl (Myr-); C-terminal amide (-NH2); Cys (2-SPy before conjugation) disulphide-linked to CD59; carboxy-terminal Cys disulphide-linked to APT2258
IH50 (nM), reactive lysis of guinea pig erythrocytes, Absence of HSA [2]: 0.8 nM
IH50 (nM), reactive lysis of guinea pig erythrocytes, Presence of HSA (2.7 mg/ml) [2]: 6 nM
